Experimental findings from US20240287208A1 (CONCEPT TO MEDICINE BIOTECH, published 2024) are described below.

The chains are these.
T1: human OX40 protein (human, UniProt P43489 29-216, limits assumed)
T1 sequence (looked up): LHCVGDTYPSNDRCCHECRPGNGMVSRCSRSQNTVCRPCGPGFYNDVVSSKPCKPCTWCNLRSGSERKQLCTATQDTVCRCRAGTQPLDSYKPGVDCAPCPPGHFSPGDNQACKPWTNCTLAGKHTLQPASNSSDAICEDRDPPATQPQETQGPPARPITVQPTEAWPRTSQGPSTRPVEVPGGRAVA

B1: b13 (42p155z2) anti-5T4/CD40 bispecific antibody (bispecific antibody, human IgG1, kappa, N297A)
heavy: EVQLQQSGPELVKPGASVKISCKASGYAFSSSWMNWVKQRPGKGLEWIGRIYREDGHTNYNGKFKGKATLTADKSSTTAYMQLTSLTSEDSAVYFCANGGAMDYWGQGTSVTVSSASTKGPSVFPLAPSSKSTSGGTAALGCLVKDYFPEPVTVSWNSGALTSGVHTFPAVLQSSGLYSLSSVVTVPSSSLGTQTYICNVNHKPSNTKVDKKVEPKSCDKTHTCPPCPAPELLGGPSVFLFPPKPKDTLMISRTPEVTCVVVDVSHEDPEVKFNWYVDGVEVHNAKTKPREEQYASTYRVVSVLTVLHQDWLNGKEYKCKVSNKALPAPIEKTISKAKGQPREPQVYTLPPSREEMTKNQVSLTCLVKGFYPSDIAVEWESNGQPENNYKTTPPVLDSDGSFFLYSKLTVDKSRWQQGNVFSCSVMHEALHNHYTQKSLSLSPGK
light: DIQMTQSTSSLSASLGDRVTISCRASQDISNYLNWYQQKPDGTVKLLIYYTSRLHSGVPSRFSGSGSGTDYSLTISNLEQEDIATYFCQQDNTLPWTFGGGTKLEIKRTVAAPSVFIFPPSDEQLKSGTASVVCLLNNFYPREAKVQWKVDNALQSGNSQESVTEQDSKDSTYSLSSTLTLSKADYEKHKVYACEVTHQGLSSPVTKSFNRGECGGGGSGGGGSGGGGSGGGGSEVQLVESGGGLVQPGGSLRLSCAASGFAFRSYTMSWVRQAPGKGLEWVSTITHNGAITTYAESAQGRFTISRDNSKNTLYLQMNSLRAEDTAVYYCAQGGGSNYYRESWGQGTQVTVSS
notes: also called 2+2 b13 format
B2: b18 (2p1130) anti-5T4/CD40 bispecific antibody (bispecific antibody, human IgG1, kappa, N297A)
heavy 1: EVQLQQSGPELVKPGASVKISCKASGYAFSSSWMNWVKQRPGKGLEWIGRIYREDGHTNYNGKFKGKATLTADKSSTTAYMQLTSLTSEDSAVYFCANGGAMDYWGQGTSVTVSSASTKGPSVFPLAPSSKSTSGGTAALGCLVKDYFPEPVTVSWNSGALTSGVHTFPAVLQSSGLYSLSSVVTVPSSSLGTQTYICNVNHKPSNTKVDKKVEPKSCDKTHTCPPCPAPELLGGPSVFLFPPKPKDTLMISRTPEVTCVVVDVSHEDPEVKFNWYVDGVEVHNAKTKPREEQYASTYRVVSVLTVLHQDWLNGKEYKCKVSNKALPAPIEKTISKAKGQPREPQVCTLPPSREEMTKNQVSLSCAVKGFYPSDIAVEWESNGQPENNYKTTPPVLDSDGSFFLVSKLTVDKSRWQQGNVFSCSVMHEALHNHYTQKSLSLSPGK
light: DIQMTQSTSSLSASLGDRVTISCRASQDISNYLNWYQQKPDGTVKLLIYYTSRLHSGVPSRFSGSGSGTDYSLTISNLEQEDIATYFCQQDNTLPWTFGGGTKLEIKRTVAAPSVFIFPPSDEQLKSGTASVVCLLNNFYPREAKVQWKVDNALQSGNSQESVTEQDSKDSTYSLSSTLTLSKADYEKHKVYACEVTHQGLSSPVTKSFNRGEC
heavy 2: not shown
notes: also called 1+3 b18 format
B3: b11 (42p155z2) anti-5T4/CD40 bispecific antibody (bispecific antibody, human IgG1, kappa, N297A)
heavy: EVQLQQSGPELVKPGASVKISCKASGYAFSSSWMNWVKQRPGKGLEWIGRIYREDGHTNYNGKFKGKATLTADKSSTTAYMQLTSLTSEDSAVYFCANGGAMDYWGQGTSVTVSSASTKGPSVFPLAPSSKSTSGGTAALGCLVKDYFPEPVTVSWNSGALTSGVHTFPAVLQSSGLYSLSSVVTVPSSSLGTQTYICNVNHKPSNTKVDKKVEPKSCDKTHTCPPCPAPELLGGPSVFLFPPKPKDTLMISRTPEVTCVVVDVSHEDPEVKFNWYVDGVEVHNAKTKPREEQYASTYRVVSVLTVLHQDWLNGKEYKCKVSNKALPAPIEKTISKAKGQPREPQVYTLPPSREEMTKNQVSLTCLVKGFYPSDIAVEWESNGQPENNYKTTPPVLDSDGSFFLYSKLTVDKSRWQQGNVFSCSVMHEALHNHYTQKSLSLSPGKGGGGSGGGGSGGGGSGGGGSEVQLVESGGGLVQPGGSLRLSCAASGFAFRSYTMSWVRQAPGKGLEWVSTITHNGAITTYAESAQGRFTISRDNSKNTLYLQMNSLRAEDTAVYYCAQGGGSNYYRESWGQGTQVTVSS
light: B2 light
notes: also called b 1 (42p155z2); 2+2 b11 format
B4: 2p957 chimeric monospecific antibody (antibody, V domains shown)
VH: PVQLVESGGGLVQPGGSLRLSCAASGFSFRNYIMSWVRQAPGKGLEWLSSITNSGGITSYTESVKGRFTISRDNAKNTLYLQMNSLKPEDTAVYYCAQGGSDNYYRGSWGQGTQVTVSS
notes: Chimeric monospecific antibody
B5: 2p1130 chimeric monospecific antibody (antibody, V domains shown)
VH: EVQVVESGGGLVQPGGSLRLTCAASGFSVDDYGIGWFRQAPGREREGVACITPNGLMMNFANTVGSVAGRFSASRDSGENTVSLQMSSLKPEDTAIYFCAHSRDDSCRGSLSDYDDWGQGTQVTVSS
notes: as for B4
B6: 42p655 chimeric monospecific antibody (antibody, V domains shown)
VH: AVQLVESGGGLVQPGGSLRLSCAASGFAFRRYTMSWVRQAPGKGLEWVSSITDNGSITTYAESAQGRFTISRDNAKNTLYLQMNSLKPEDTAVYHCAQGGGSNYYRESWGQGTQVTVSS
notes: as for B4
B7: 2p1294 chimeric monospecific antibody (antibody, V domains shown)
VH: B6 VH with A1Q, A28S, S50A, T52S, S56A, A61T, H95Y
notes: as for B4
B8: 2p551 chimeric monospecific antibody (antibody, V domains shown)
VH: QLHFVESGGGLVQPGGSLRLSCAASGFTLDYYAIGWFRQAPGKEREGVSCISGGGSTRYADSVKGRFTISRDNAKNTVYLQMNSLTPEDTAVYYCAAARLLSTNCVPRDSGSWGQGTQVTVSS
notes: as for B4
B9: 2p415 chimeric monospecific antibody (antibody, V domains shown)
VH: B8 VH with Y31H, I34M, V63A, T103R
notes: as for B4
B10: 42p495 chimeric monospecific antibody (antibody, V domains shown)
VH: PVQLVESGGNLVQPGGSLRLSCVAPGFTSRNSAMSWVRQAPGKGLEWVSTIYSGKSNTDYADSVKGRFTISTDNAKNTLYLHMNKLKSEDTAVYYCAKGAASDWYVPRDYWGQGTQVTVSS
notes: as for B4
B11: 42p155 chimeric monospecific antibody (antibody, V domains shown)
VH: B6 VH with A1P, V2S, R31S, S50T, D53H, S56A, H95Y
notes: Chimeric monospecific antibody (cAb) made from the VHH; also called 42p155 cAb

Substitutions are numbered along the chain they refer to.

T2 sequence (P25942 21-277): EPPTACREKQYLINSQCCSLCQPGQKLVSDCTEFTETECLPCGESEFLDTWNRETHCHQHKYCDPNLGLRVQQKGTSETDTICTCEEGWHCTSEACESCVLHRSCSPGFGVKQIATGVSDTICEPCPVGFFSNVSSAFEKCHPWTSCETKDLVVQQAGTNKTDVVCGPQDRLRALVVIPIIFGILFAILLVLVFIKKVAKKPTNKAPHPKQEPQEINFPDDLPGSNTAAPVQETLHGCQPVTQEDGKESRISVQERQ

The first assay addresses T2, human CD40 on the cell surface (human, UniProt P25942 21-277).
T2 construct: whole, on cells; also called cell surface CD40; Jurkat-CD40
Put plainly: FACS, Jurkat cells overexpressing human CD40, PE anti-human IgG, MFI. On the procedure: To evaluate the binding affinity of 5T4-CD40 bispecific antibodies to cell surface CD40, bispecific antibodies with formats of b 1 (42p155z2), b12 (42p155z2), b13 (42p155z2), b16 (42p155z2), b17 (42p155z2) and b18 (2p1130) were tested in Jurkat cell lines that overexpressed CD40 by FACS. A total number of 1×10⁵ Jurkat-CD40 cells in each well were incubated with 5-fold serially diluted antibodies starting from 100 nM for 30 minutes at 4° C. in FACS buffer. After wash by FACS buffer, PE conjugated-anti-human IgG antibody was added to each well and incubated at 4° C. for 30 minutes. After wash, MFI of PE was evaluated by MACSQuant Analyzer 16.
In general terms: In flow cytometry, cells or beads pass a laser one at a time.
As to B1, the binding result is “binds”.

As usually defined, the EC50 (read off the curve) is the concentration giving half of the maximal effect. High values mean lower potency in that assay, low ones higher potency in that assay. Regarding B2, the “EC50 (read off the curve)” value was ~2 nM.

For B3, the binding result is on record as “binds”.

Another assay deals with T3, cynomolgus CD40-His protein (cynomolgus, UniProt G7PG38 21-193).
T3 construct: His-tagged recombinant protein; also called cyno CD40 antigen
Kind of assay: ELISA, plate-coated cynomolgus CD40-His. Here is the method: (§1) To evaluate the binding activity of clones 42p155, 2p834, 2p931, 42p655, 2p1294, 2p957, 42p495, 3p78, 2p415, 2p442, 2p551, 2p80 and 2p1130, the chimeric monospecific antibody (mAb) from these clones were subjected to ELISA test, along with selicrelumab, the clinical benchmark anti-CD40 agonist antibodies.
The binding affinity of these clones to cynomolgus CD40 was also tested. Microtiter plates were coated with cynomolgus CD40-His protein at 1.0 μg/ml in PBS, 100 µl/well at 4° C. overnight, then blocked with 150 µl/well of 1% BSA. Ten-fold dilutions of 42p155, 2p834, 2p931, 42p655, 2p1294, 2p957, 42p495, 3p78, 2p415, 2p442, 2p551, 2p80 and 2p1130 antibodies starting from 100 nM were added to each well and incubated for 1 hour at RT. The plates were washed with PBS/Tween and then incubated with Anti-Human IgG (H&L) (GOAT) Antibody Peroxidase Conjugated for 30 mins at RT. After washing, the plates were developed with TMB substrate and analyzed by spectrophotometer at OD 450 nm. As shown in FIG. 1B and Table 2, all these clones bound to cynomolgus CD40 at high activity, showing good cross-reactivity between human and cynomolgus CD40 proteins.
(In an ELISA, binding on a coated surface is turned into a signal by an enzyme label.)
In general, EC50 refers to the concentration at which the effect is half-maximal. With B4, the EC50 turned out to be 1.08 nM.

As for B5, a half-maximal response (EC50) required 0.73 nM.

As for B6, the EC50 was found to be 0.35 nM.

With B7, the EC50 stood at 0.32 nM. This EC50 and that of the molecule before are within 1.5-fold of each other.

The molecule B8 showed an EC50 of 0.13 nM.

With B9, the EC50 turned out to be 0.23 nM.

B10 yielded an EC50 of 1 nM.

For the next assay, the target named is T2, human CD40 on the cell surface. Kind of assay: cell-based or functional assay.
In the case of B4, the “CD40 NF-κB luciferase reporter (Jurkat), RLU” value (“CD40 NF-κB luciferase reporter” for short) was > 10 nM.

On to B5, for which the “CD40 NF-κB luciferase reporter” value was > 10 nM.

With B11, the “CD40 NF-κB luciferase reporter” value is > 10 nM.

Regarding B6, the “CD40 NF-κB luciferase reporter” value is > 10 nM.

B7: the “CD40 NF-κB luciferase reporter” value was > 10 nM.

For B8, the “CD40 NF-κB luciferase reporter” value was > 10 nM.

Turning to B9, the “CD40 NF-κB luciferase reporter” value was > 10 nM.

For B10, the “CD40 NF-κB luciferase reporter” value was > 10 nM.

In the next assay the target is T1, human OX40 protein. Put plainly: ELISA, plate-coated protein. Here is the method:
(§2) To evaluate the cross reactivity of chimeric anti-CD40 antibodies to other family members of TNF receptors, the ELISA binding towards human 4-1BB and human OX40 were performed.
(§3) Briefly, microtiter plates were coated with human 4-1BB protein or human OX40 protein at 1 μg/ml in PBS, 100 μl/well at 4° C. overnight, then blocked with 150 μl/well of 1% BSA. Ten-fold dilutions of 42p155, 2p834, 2p931, 42p655, 2p1294, 2p957, 42p495, 3p78, 2p415, 2p442, 2p551, 2p80 and 2p1130 antibodies starting from 100 nM were added to each well and incubated for 1 hour at RT. The plates were washed with PBS/Tween and then incubated with Anti-Human IgG (H&L) (GOAT) Antibody Peroxidase Conjugated for 30 mins at RT. After washing, the plates were developed with TMB substrate and analyzed by spectrophotometer at OD 450 nm.
B4: the binding result is reported as “no binding (tested: 100 nM (highest concentration))”.

On to B5, for which the binding result is “no binding (tested: 100 nM (highest concentration))”.

Regarding B11, the binding result is given as “no binding (tested: 100 nM (highest concentration))”.

In the case of B6, the binding result is listed as “no binding (tested: 100 nM (highest concentration))”.

With B7, the binding result is recorded as “no binding (tested: 100 nM (highest concentration))”.

As for B8, the binding result was “no binding (tested: 100 nM (highest concentration))”.

For B9, the binding result was “no binding (tested: 100 nM (highest concentration))”.

With B10, the binding result is “no binding (tested: 100 nM (highest concentration))”.

In a further assay the target is T4, human 4-1BB protein (human, UniProt Q07011 24-186).
T4 construct: also called 4-IBB
Put plainly: ELISA, plate-coated protein. On the procedure:
as §2, §3
Take B4: the binding result is “no binding (tested: 100 nM (highest concentration))”.

Consider B5, for which the binding result is “no binding (tested: 100 nM (highest concentration))”.

On to B11, for which the binding result is “no binding (tested: 100 nM (highest concentration))”.

B6: the binding result is “no binding (tested: 100 nM (highest concentration))”.

Consider B7, for which the binding result is on record as “no binding (tested: 100 nM (highest concentration))”.

On to B8, for which the binding result is listed as “no binding (tested: 100 nM (highest concentration))”.

In the case of B9, the binding result is given as “no binding (tested: 100 nM (highest concentration))”.

With B10, the binding result was “no binding (tested: 100 nM (highest concentration))”.

Another assay deals with T5, human CD40-His protein (human, UniProt P25942 21-193).
T5 construct: His-tagged recombinant protein; also called human CD40-his tag; recombinant CD40 protein
T5 sequence (P25942 21-193 limits assumed): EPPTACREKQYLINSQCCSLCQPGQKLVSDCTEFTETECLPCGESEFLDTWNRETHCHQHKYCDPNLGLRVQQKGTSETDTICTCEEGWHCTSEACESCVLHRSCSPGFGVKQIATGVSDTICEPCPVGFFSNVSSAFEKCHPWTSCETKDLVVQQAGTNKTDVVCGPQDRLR
Kind of assay: ELISA, plate-coated human CD40-His. Here is the method:
as §1
as §3, with “human CD40-His” for “human 4-1BB protein or human OX40”, “at 1.0” for “at 1”, “150 µl/well” for “150 μl/well”
Molecule B4 gave an EC50 of 1.8 nM.

B5 had an EC50 of 2.56 nM.

B6 showed an EC50 of 1.24 nM.

With B7, a half-maximal effect (EC50) was put at 1.16 nM. This EC50 and that of the molecule before are within 1.5-fold of each other.

B8: the response was half-maximal at 1.4 nM (EC50). This EC50 and that of the molecule before are within 1.5-fold of each other.

In the case of B9, a half-maximal response (EC50) required 1.27 nM.

Molecule B10 returned an EC50 of 1.52 nM. This EC50 and that of the molecule before are within 1.5-fold of each other.
